{"source": "patent US20230054860", "biological_target": "WDR26 (endogenous) (UniProt Q9H7D7)", "sequence (Q9H7D7 whole entry)": "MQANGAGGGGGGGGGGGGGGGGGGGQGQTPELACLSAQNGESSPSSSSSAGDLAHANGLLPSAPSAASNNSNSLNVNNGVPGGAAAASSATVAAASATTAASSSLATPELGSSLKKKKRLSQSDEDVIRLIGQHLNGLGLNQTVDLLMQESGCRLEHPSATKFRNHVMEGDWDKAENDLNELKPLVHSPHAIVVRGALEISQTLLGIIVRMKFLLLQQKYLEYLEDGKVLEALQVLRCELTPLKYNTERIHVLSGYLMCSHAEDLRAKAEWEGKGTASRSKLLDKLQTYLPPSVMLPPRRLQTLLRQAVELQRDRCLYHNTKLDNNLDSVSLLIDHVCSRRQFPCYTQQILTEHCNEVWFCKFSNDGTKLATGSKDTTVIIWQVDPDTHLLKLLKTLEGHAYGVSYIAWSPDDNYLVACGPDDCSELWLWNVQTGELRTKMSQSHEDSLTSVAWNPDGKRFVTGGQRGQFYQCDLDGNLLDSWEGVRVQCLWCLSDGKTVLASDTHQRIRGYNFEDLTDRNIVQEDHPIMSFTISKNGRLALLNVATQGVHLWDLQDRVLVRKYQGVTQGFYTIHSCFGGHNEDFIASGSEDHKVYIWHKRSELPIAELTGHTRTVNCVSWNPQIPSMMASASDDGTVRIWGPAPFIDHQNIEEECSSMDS", "data": [{"substance": "AKT (endogenous)", "values": [{"measurement": "AKT phosphorylation levels (pAKT S473, western blot)", "result": "ultimately leading to a decrease in AKT phosphorylation levels"}]}]}
